System: MBP H3 116–135
Experiment: Pulldown of MBP H3 116–135 by (His)6-sNASP truncations
Format: binding
Conditions: (His)6-tagged sNASP truncations, SDS-PAGE, Coomassie, western blotting for MBP
Procedure: Protein was eluted in the same buffer with 250 mM imidazole, but without protease inhibitors. The (His)6 tag was cleaved overnight by TEV protease, whilst concomitantly dialysing to 100 mM sodium chloride, 20 mM Tris–HCl pH 8.0, 1 mM EDTA and 5 mM dithiothreitol. Cleaved protein was further purified by ion-exchange using a ResourceQ column (GE Healthcare) before gel filtration chromatography in 200 mM sodium chloride, 20 mM Hepes-KOH pH 7.6 and 1 mM EDTA using a 26/60 Superdex 200 column (GE Healthcare). The purified protein was concentrated and stored in aliquots at −80°C. Homologues, truncations and point mutants of sNASP were expressed and purified using the same method. MBP-H3 peptide fusions were expressed in bacteria and used as whole cell extracts (epitope mapping) or purified over a Dextrin Sepharose column (GE Healthcare) in one-step purification in 0.5 M sodium chloride, 20 mM Hepes-KOH pH 7.6, 1 mM EDTA and 5 mM dithiothreitol. Concentrated protein was dialysed against 200 mM sodium chloride, 20 mM Hepes-KOH, 1 mM EDTA and 5 mM dithiothreitol and stored in aliquots at −80°C.
Mutations were made in the MBP H3 116–135 construct using a mixture of site-direct mutagenesis and oligo ligation. Whole cell extracts were prepared from bacteria and used as inputs for the pulldown experiments with (His)6-sNASP pre-bound to Nickel-NTA beads (GE Healthcare).
A BsNASP mutantsH3 peptide […]
200 A260 M Elution volume (mL) […]
construct used for NMR (A) Various truncations of (His)6-sNASP were tested for their ability to pull down MBP -H3 116-135 ( W T ) or a scrambled peptide (Sc). […]
separated by SDS-PAGE and stained with Coomassie. […]
western blotting for MBP was also carried out. (B) Domain diagrams of truncations shown in A with TPR motifs in green, the acidic loop region in yellow and the predicted capping region in grey. A summar y of the interaction with MBP-H3 116-135 is shown on the right hand side.
Binding Protein; CR, capping region; TPR, tetratricopeptide repeat; cTPR, contiguous TPR; mcTPR, minimum contiguous […]

B1: N-300: sNASP truncated at residue 300 (protein, UniProt P49321 1-300, looked up, fragment)
chain: MAMESTATAAVAAELVSADKIEDVPAPSTSADKVESLDVDSEAKKLLGLGQKHLVMGDIPAAVNAFQEAASLLGKKYGETANECGEAFFFYGKSLLELARMENGVLGNALEGVHVEEEEGEKTEDESLVENNDNIDEEAREELREQVYDAMGEKEEAKKTEDKSLAKPETDKEQDSEMEKGGREDMDISKSAEEPQEKVDLTLDWLTETSEEAKGGAAPEGPNEAEVTSGKPEQEVPDAEEEKSVSGTDVQEECREKGGQEKQGEVIVSIEEKPKEVSEEQPVVTLEKQGTAVEVEAESL
modifications: sNASP
- ability to bind / pull down MBP H3 116–135: incapable of binding H3
- ability to bind / pull down MBP H3 116–135 (listed as Truncating sNASP close to TPR4 at residue 300): loss of interaction

B2: N-330: sNASP truncated at residue 330 (protein, UniProt P49321 1-330, looked up, fragment)
chain: MAMESTATAAVAAELVSADKIEDVPAPSTSADKVESLDVDSEAKKLLGLGQKHLVMGDIPAAVNAFQEAASLLGKKYGETANECGEAFFFYGKSLLELARMENGVLGNALEGVHVEEEEGEKTEDESLVENNDNIDEEAREELREQVYDAMGEKEEAKKTEDKSLAKPETDKEQDSEMEKGGREDMDISKSAEEPQEKVDLTLDWLTETSEEAKGGAAPEGPNEAEVTSGKPEQEVPDAEEEKSVSGTDVQEECREKGGQEKQGEVIVSIEEKPKEVSEEQPVVTLEKQGTAVEVEAESLDPTVKPVDVGGDEPEEKVVTSENEAGKAVL
modifications: sNASP
- ability to bind / pull down MBP H3 116–135: binds the H3 C-terminal peptide with affinity similar to the full length
- ability to bind / pull down MBP H3 116–135 (listed as truncation at residue 330): retained the interaction
